Measured values as given in PMC2133122.
Where “and” joins values, the source holds several entries; their conditions need not be identical. Identical values can stand only once.

Columns and labels:
[1] = biological target: mitochondrial Hsp70 (mtHsp70, Ssc1p), wild type (S. cerevisiae (endogenous in yeast mitochondria)) (UniProt P0CS90); assay: co-IP
[2] = biological target: mutant mtHsp70 encoded by the allele ssc1-2 (Ssc1-2p) (S. cerevisiae (endogenous in yeast mitochondria)) (UniProt P0CS90); assay: co-IP

## Tim44Δ18 (Tim44 with a deletion of residues 185–202) (natural protein)
[1]
  fold reduction of complex formation with mtHsp70 against authentic Tim44: 3 fold and 4 fold
  percent reduction of complex formation with mtHsp70 against authentic Tim44: 70%

## Su9-DHFR, imported into mitochondria (from UniProt P00375 1-187)
[2]
  fold efficiency of binding against wild-type mtHsp70: > 4 fold
